Experimental data: patent US20090186824A1 (INIMEX PHARMACEUTICALS, published 2009)
Bridges are numbered along the chain shown (N, C = ends). Where no end group is shown, it is not given here. [ ]: non-standard residue; d: D form.

Molecular target: dipeptidyl peptidase IV (DPPIV) in plasma of ICR mouse blood (mouse, UniProt P28843 37-760)
Assay: cell-based or functional assay

dipeptidyl peptidase IV (DPPIV) in plasma of ICR mouse blood, sequence (P28843 37-760 limits assumed): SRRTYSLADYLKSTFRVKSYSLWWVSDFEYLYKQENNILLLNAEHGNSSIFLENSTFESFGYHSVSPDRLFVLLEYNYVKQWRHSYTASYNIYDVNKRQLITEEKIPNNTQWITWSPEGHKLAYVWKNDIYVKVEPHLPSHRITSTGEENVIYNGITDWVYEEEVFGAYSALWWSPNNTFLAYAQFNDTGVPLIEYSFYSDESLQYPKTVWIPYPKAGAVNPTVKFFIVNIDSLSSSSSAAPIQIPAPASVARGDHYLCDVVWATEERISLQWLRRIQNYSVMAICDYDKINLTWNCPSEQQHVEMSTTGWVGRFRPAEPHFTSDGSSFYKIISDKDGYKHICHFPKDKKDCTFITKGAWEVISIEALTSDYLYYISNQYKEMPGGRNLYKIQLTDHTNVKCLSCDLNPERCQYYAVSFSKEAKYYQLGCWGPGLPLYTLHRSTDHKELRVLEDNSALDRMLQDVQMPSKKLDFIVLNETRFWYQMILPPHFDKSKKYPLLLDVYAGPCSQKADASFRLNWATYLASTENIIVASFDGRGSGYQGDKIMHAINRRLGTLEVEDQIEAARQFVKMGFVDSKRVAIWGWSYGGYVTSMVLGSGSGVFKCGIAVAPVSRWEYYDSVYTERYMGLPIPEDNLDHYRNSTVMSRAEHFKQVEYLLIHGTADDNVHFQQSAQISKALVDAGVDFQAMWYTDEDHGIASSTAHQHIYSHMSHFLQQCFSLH

% DPPIV Activity (Saline)	Binder
30 % relative to saline control	CRIVPAC (disulfide 1-7; not fully specified (C-terminus)) [SEQ ID NO 32]
51 % relative to saline control	[code r][code r]VP-NH2 (not fully specified) [SEQ ID NO 62]
93 % relative to saline control	Ac-KSRIVP-NH2 [SEQ ID NO 2]
